The target in test [1] is T1, rhesus MCH-1R (Macaca mulatta, UniProt Q8MJ89).
T1 construct: expressed in transfected cells; host or cells: HEK293T
Put plainly: Intracellular calcium (fura-2) in HEK293T cells transiently expressing rhesus MCH-1R. It counts as cell-based, rhesus monkey. The settings on record: read-out: EC50, increase in intracellular calcium levels. From the text:
The entire coding sequence of rhesus MCH-1R was cloned into EcoRI-NotI site of pEF1lV5-HisB plasmid vector (Invitrogen, Carlsbad, Calif.). The resultant construct was transfected into HEK293T cells using LipofectAmine PLUS (Life Technologies, Rockville, Md.) according to the manufacture's instructions. Human embryonic kidney cells constitutively expressing SV40 large T antigen (HEK-293T) were maintained in Dulbecco's modified Eagle medium (Life Technologies) supplemented with 10% fetal bovine serum, 100 units/ml penicillin-G and 100 μg/ml streptomycin at 37° C. with 5% CO2 in a humidified atmosphere.
The intracellular calcium ion concentration ([Ca^2+]i) was measured fluorometrically using a Ca^2+-sensitive fluorescent dye, fura-2. HEK293T cells transiently transfected with pEF1N5-HisB plasmid vector harboring rhesus MCH-1R cDNA were harvested by phosphate-buffered saline containing 2 mM EDTA 48 hours after transfection, and washed once with the assay buffer (Hanks' balanced salt solution containing 20 mM HEPES and 0.1% BSA, pH 7.4). […] Data were analyzed using the software GraphPad Prism Version 3.0 (GraphPad Software, Inc., San Diego, Calif., USA).

Test [2] deals with T1, rhesus MCH-1R. Put plainly: Inhibition of [125I]-MCH binding to rhesus MCH-1R expressed on HEK293T cells (filtration). Also on record: species or system rhesus monkey. The settings on record: 100 pM [125I]-MCH, 4×10^5 cells/tube, 30 min, 37° C. The procedure:
(§1) HEK293T cells transfected with pEF1IV5-HisB/MCH1R plasmid were harvested by phosphate-buffered saline containing 2 mM EDTA 48 hours after transfection, and washed once with the assay buffer (Hanks' balanced salt solution containing 20 mM HEPES, 0.2% BSA and 100 μg/ml bacitracin, pH 7.4). The cells (4×10^5 cells/tube) were then incubated in 250 μl/tube of the same buffer with 100 pM […] for 30 minutes at 37° C. After the incubation, bound and free [^25I]-MCH were separated by filtration using a Unifilter GF/B glass filter (Packard Instrument) presoaked with 0.3% polyethylenimine. The remaining radioactivity on the filter was quantitated using a TopCount HTS (Packard instrument) with a Microscint 0 scintillation cocktail (Packard instrument). Specific binding was defined as the difference between total binding and nonspecific binding in the presence of 1 μM cold MCH. Data were analyzed using GraphPad Prism Version 3.0.

Test [3] concerns the target T1, rhesus MCH-1R. Put plainly: Radioligand binding to adherent HEK293T cells transfected with rhesus MCH-1R. Also noted: species or system rhesus monkey. The procedure:
HEK293T cells were seeded into 24-well culture plates coated with poly-D-Lys at 1×10^5 cells/well and were cultured during over-night. The adherent cells were transfected with pEF1/V5-HisB/rhesus MCH-1R plasmid (see Example 2). Forty-eight hours after transfection, the transfected monolayer cells were rinsed with the assay buffer (Hanks' balanced salt solution containing 20 mM HEPES, 0.2% BSA and 100 μg/ml bacitracin, pH 7.4). The cells were then incubated in 250 μl well of the same buffer with [^125I]-MCH (100 pM, NEN Life Science Products, Boston, Mass.) or [^125I]-[Phe^13,Tyr^19]-MCH (100 pM, NEN Life Science Products) for 30 minutes at 37° C. After the incubation, the cells were washed three times with the ice cold assay buffer and lysed with 500 μl/well of 2 M NaOH. The lysates were transferred into test tubes and the cell- bound radioactivity was measured by a COBLA Quantum γ-counter (Packard Instrument, Meriden, CT). Nonspecific binding was defined in the presence of 1 μM cold MCH or [Phe^13,Tyr^19]-MCH for the corresponding radio ligands.

Test [4] relates to mock transfected cells (HEK293T). Put plainly: Radioligand binding to mock transfected HEK293T cells. Also noted: species or system human.
Test [5] has as its target rhesus monkey MCH-1R (melanin-concentrating hormone type 1 receptor) (rhesus monkey) (UniProt Q8MJ89). Put plainly: radioligand binding, 100 pM, HEK293T cells expressing rhesus MCH-1R, replicate 1.
For test [6] the target is unchanged. Description: radioligand binding, 100 pM, HEK293T cells expressing rhesus MCH-1R, replicate 2.
Test [7] has the same target. Description: radioligand binding, 100 pM, HEK293T cells expressing rhesus MCH-1R, replicate 3.
For test [8] the target is unchanged. Put plainly: radioligand binding, 100 pM, in the presence of 1 uM cold [Phe13,Tyr19]-MCH, HEK293T cells expressing rhesus MCH-1R, replicate 1.
Test [9] has the same target. Put plainly: radioligand binding, 100 pM, in the presence of 1 uM cold [Phe13,Tyr19]-MCH, HEK293T cells expressing rhesus MCH-1R, replicate 2.
Test [10] shares this target. Description: radioligand binding, 100 pM, in the presence of 1 uM cold [Phe13,Tyr19]-MCH, HEK293T cells expressing rhesus MCH-1R, replicate 3.
Test [11] addresses T2, rhesus monkey MCH-1R (melanin-concentrating hormone type 1 receptor) (rhesus monkey), Q8MJ89.
T2 chain: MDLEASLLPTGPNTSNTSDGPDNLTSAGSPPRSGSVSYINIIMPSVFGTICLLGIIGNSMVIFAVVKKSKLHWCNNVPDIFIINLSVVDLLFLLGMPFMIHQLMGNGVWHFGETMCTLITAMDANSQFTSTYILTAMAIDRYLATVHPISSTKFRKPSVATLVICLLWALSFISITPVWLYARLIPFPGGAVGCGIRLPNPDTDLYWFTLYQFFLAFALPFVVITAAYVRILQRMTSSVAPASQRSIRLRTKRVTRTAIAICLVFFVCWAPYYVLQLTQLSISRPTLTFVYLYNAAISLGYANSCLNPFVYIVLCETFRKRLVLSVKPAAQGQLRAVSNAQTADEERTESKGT
Put plainly: cell-based or functional assay.

The target of test [12] is T2, rhesus monkey MCH-1R …. Put plainly: displacement of 100 pM [125I]-MCH from HEK293T cells expressing rhesus MCH-1R, filtration.
In test [13] the target is T3, rhesus monkey MCH-1R (melanin-concentrating hormone type 1 receptor) (rhesus monkey, UniProt Q8MJ89 1-353). Put plainly: cell-based or functional assay.
Test [14] has as its target T3, rhesus monkey MCH-1R …. Put plainly: displacement of 100 pM [125I]-MCH from HEK293T cells expressing rhesus MCH-1R, filtration. The procedure: as §1, with “(4×10⁵” for “(4×10^5”, “[²⁵I]-MCH” for “[^25I]-MCH”
IC₅₀ values of MCH and [Phe¹³,Tyr¹⁹]-MCH in this experiment were calculated as 0.074 and 0.14 nM, respectively.

The mark [15] stands for this setting: Rhesus MCH-1R transfected HEK293T, 100 pM radioligand, 30 min, 37° C.
[16] abbreviates: Mock transfected HEK293T, 100 pM radioligand.

The text below walks through data of patent US20040248129A1, “Rhesus monkey, dog and feeret melanin-concentrating hormone type 1 receptor” (priority 2001, published 2004).

Values joined by “and” are separate entries in the source; they are usually repeats but may differ in a detail not shown here. Equal values may be shown once. Positions of bridges follow the written chain, without caps; N, C: chain ends. No end group written: not given here.

For `CSCC[C@@H]1NC(=O)[C@@H](NC(=O)[C@H](CCCNC(=N)N)NC(=O)[C@H](CC(C)C)NC(=O)[C@H](CCSC)NC(=O)[C@H](CC(=O)O)NC(=O)[C@H](Cc2ccccc2)NC(=O)[C@@H](N)CC(=O)O)CSSC[C@@H](C(=O)N[C@@H](Cc2c[nH]c3ccccc23)C(=O)N[C@@H](CCC(N)=O)C(=O)N[C@H](C(=O)O)C(C)C)NC(=O)[C@@H]2CCCN2C(=O)[C@H](CCCNC(=N)N)NC(=O)[C@H](Cc2ccc(O)cc2)NC(=O)[C@H](C(C)C)NC(=O)[C@H](CCCNC(=N)N)NC(=O)CNC(=O)[C@H](CC(C)C)NC1=O` [MCH, Melanin-concentrating hormone], the half-maximal effective concentration (EC50) in test [1] amounted to 0.3 nM. The same molecule displayed an IC50 in test [2] of 0.074 nM.

For [^125I]-MCH, the “Binding to HEK293T cells expressing rhesus MCH-1R (in words)” value in test [3] (100 pM radioligand) is “bound to the HEK293T cells expressing rhesus MCH-1R with good windows”. The “[125I]-MCH binding, Total binding” value is 2542.8 cpm and 2893.4 cpm and 2315.5 cpm in test [3] (setting [15]); 209.9 cpm and 215.8 cpm and 239.8 cpm in test [4] (setting [16]). Besides, the “Specific binding into mock transfected cells (in words)” value in [4] (100 pM radioligand) is on record as “Specific binding was not observed”. In addition, the “[125I]-MCH binding, Nonspecific binding” value in test [4] (Mock transfected HEK293T, 100 pM radioligand in the presence of 1 μM cold MCH) was 172.0 cpm and 180.9 cpm and 184.1 cpm.

Consider [^125I]-[Phe^13,Tyr^19]-MCH, for which, in [3] (100 pM radioligand), the “Binding to HEK293T cells expressing rhesus MCH-1R (in words)” value was “bound to the HEK293T cells expressing rhesus MCH-1R with good windows”. For the same molecule, the “[125I]-[Phe13,Tyr19]-MCH binding, Nonspecific binding” value in test [3] (Rhesus MCH-1R transfected HEK293T, 100 pM radioligand in the presence of 1 μM cold [Phe13,Tyr19]-MCH) is 1524.1 cpm and 2023.5 cpm and 1029.6 cpm; in [4] (Mock transfected HEK293T, 100 pM radioligand in the presence of 1 μM cold [Phe13,Tyr19]-MCH) it was 539.7 cpm and 537.7 cpm and 557.8 cpm. Moreover, the “[125I]-[Phe13,Tyr19]-MCH binding, Total binding” value is 5353.0 cpm and 5542.3 cpm and 6345.9 cpm in test [3] (setting [15]); 708.9 cpm and 663.3 cpm and 771.5 cpm in test [4] (setting [16]). The “Specific binding into mock transfected cells (in words)” value in test [4] (100 pM radioligand) was “Specific binding was not observed”.

For the molecule “[^125I]-[Phe^13,Tyr^19]-MCH (from UniProt P20382 147-165) (peptide)”, the Total binding (cpm) in [5] worked out at 5350 cpm; in test [6], 5540 cpm; in [7], 6350 cpm. The Nonspecific binding (cpm) in [8] came to 1520 cpm; in [9] it was 2020 cpm; in [10] it was 1030 cpm.

Regarding DFDMLRCMLGRVYRPCWQV (peptide, UniProt P20382 147-165, looked up, modifications not checked) [MCH (melanin-concentrating hormone), unlabelled, P20382 147-165], in test [11], the increase in intracellular calcium levels (fura-2) in HEK293T cells transiently expressing rhesus MCH-1R, EC50 worked out at 0.3 nM. In addition, in test [12], the half-inhibitory concentration (IC50) amounted to 0.074 nM.

B1: [Phe^13,Tyr^19]-MCH, unlabelled (peptide)
peptide: DFDMLRCMLGRVFRPCWQY
modifications: disulfide 7-16 (inferred)
notes: Only the new residues (Phe13, Tyr19) are printed; also called cold [Phe^13,Tyr^19]-MCH
Consider B1, for which the “increase in intracellular calcium levels (fura-2) in HEK293T cells transiently expressing rhesus MCH-1R, EC50” value in test [13] came out at 1.1 nM. Further, in test [14], the concentration for half-maximal inhibition (IC50) is 0.14 nM.

What is called EC50 is the midpoint of the concentration-response curve. As a reminder, the IC50 is the concentration at which inhibition is half-maximal.
